Results reported in patent US20250144178A1 (KANAPH THERAPEUTICS, published 2025).
Where a chain is given by its changes, count along the chain named.

T1: recombinant human FAP (human, UniProt Q12884 26-760)
T1 construct: Soluble analyte in SPR; The description calls FAP a homodimer; also called rhFAP
T1 sequence (looked up): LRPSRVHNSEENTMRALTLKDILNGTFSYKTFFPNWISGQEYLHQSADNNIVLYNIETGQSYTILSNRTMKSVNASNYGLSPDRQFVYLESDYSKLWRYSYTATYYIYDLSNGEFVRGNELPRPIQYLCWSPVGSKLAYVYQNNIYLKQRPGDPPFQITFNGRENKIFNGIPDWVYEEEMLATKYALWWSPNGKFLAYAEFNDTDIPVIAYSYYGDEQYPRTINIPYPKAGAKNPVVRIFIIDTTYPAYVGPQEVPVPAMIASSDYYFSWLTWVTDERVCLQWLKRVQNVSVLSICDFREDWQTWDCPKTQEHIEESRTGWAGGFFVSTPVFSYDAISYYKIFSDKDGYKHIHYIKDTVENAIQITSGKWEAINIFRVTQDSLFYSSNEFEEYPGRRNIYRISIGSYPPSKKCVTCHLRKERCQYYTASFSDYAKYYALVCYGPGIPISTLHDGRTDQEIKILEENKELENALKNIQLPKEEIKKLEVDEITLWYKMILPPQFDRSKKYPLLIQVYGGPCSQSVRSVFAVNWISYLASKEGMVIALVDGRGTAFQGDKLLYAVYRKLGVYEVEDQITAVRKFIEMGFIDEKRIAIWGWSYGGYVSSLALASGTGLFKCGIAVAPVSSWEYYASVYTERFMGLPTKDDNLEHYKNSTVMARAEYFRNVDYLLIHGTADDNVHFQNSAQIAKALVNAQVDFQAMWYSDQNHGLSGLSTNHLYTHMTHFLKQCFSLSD

B1: T1.06 (anti-hu FAP/hu IL-12, hu IgG1 DANG (2 + 1, HC scFv)) (bispecific antibody)
heavy: QVQLVQSGAEVKKPGASVKVSCKTSRYTFTEYTIHWVRQAPGQRLEWIGGINPNNGIPNYNQKFKGRVTITVDTSASTAYMELSSLRSEDTAVYYCARRRIAYGYDEGHAMDYWGQGTLVTVSSASTKGPSVFPLAPSSKSTSGGTAALGCLVKDYFPEPVTVSWNSGALTSGVHTFPAVLQSSGLYSLSSVVTVPSSSLGTQTYICNVNHKPSNTKVDKKVEPKSCDKTHTCPPCPAPELLGGPSVFLFPPKPKDTLMISRTPEVTCVVVAVSHEDPEVKFNWYVDGVEVHNAKTKPREEQYGSTYRVVSVLTVLHQDWLNGKEYKCKVSNKALPAPIEKTISKAKGQPREPQVYTLPPSRDELTKNQVSLWCLVKGFYPSDIAVEWESNGQPENNYKTTPPVLDSDGSFFLYSKLTVDKSRWQQGNVFSCSVMHEALHNHYTQKSLSLSPGKGGGGSGGGGSGGGGSQVQLVQSGAEVKKPGASVKVSCKTSRYTFTEYTIHWVRQAPGQRLEWIGGINPNNGIPNYNQKFKGRVTITVDTSASTAYMELSSLRSEDTAVYYCARRRIAYGYDEGHAMDYWGQGTLVTVSSGGGGSGGGGSGGGGSGGGGSDIVMTQSPDSLAVSLGERATINCKSSQSLLYSRNQKNYLAWYQQKPGQPPKLLIFWASTRESGVPDRFSGSGFGTDFTLTISSLQAEDVAVYYCQQYFSYPLTFGQGTKVEIK
light: not shown
chain: not shown
notes: Anti-FAP scFv at the C-terminus of the heavy chain; knob-in-hole with the IL-12 arm
B2: T1.07 (anti-hu FAP/hu IL-12 mut2, hu IgG1 DANG (2 + 1, HC scFv)) (bispecific antibody)
heavy: B1 heavy
light: not shown
chain: not shown
notes: Anti-FAP scFv at the C-terminus of the heavy chain; knob-in-hole with the IL-12 mut2 arm
B3: T1.04 (anti-hu FAP/hu IL-12, hu IgG1 DANG (2 + 1)) (bispecific antibody)
heavy: QVQLVQSGAEVKKPGASVKVSCKTSRYTFTEYTIHWVRQAPGQRLEWIGGINPNNGIPNYNQKFKGRVTITVDTSASTAYMELSSLRSEDTAVYYCARRRIAYGYDEGHAMDYWGQGTLVTVSSGGGGSGGGGSGGGGSQVQLVQSGAEVKKPGASVKVSCKTSRYTFTEYTIHWVRQAPGQRLEWIGGINPNNGIPNYNQKFKGRVTITVDTSASTAYMELSSLRSEDTAVYYCARRRIAYGYDEGHAMDYWGQGTLVTVSSASTKGPSVFPLAPSSKSTSGGTAALGCLVKDYFPEPVTVSWNSGALTSGVHTFPAVLQSSGLYSLSSVVTVPSSSLGTQTYICNVNHKPSNTKVDKKVEPKSCDKTHTCPPCPAPELLGGPSVFLFPPKPKDTLMISRTPEVTCVVVAVSHEDPEVKFNWYVDGVEVHNAKTKPREEQYGSTYRVVSVLTVLHQDWLNGKEYKCKVSNKALPAPIEKTISKAKGQPREPQVYTLPPSRDELTKNQVSLWCLVKGFYPSDIAVEWESNGQPENNYKTTPPVLDSDGSFFLYSKLTVDKSRWQQGNVFSCSVMHEALHNHYTQKSLSLSPGK
light: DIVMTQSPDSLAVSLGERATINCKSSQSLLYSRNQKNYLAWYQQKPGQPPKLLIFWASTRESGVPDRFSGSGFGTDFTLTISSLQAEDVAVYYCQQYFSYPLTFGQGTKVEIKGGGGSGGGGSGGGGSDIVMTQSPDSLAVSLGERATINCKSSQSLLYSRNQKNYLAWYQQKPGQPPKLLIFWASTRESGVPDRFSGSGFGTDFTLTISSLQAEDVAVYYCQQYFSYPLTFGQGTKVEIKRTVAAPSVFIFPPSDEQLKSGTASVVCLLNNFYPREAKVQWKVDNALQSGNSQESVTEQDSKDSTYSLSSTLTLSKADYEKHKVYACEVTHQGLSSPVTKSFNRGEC
chain: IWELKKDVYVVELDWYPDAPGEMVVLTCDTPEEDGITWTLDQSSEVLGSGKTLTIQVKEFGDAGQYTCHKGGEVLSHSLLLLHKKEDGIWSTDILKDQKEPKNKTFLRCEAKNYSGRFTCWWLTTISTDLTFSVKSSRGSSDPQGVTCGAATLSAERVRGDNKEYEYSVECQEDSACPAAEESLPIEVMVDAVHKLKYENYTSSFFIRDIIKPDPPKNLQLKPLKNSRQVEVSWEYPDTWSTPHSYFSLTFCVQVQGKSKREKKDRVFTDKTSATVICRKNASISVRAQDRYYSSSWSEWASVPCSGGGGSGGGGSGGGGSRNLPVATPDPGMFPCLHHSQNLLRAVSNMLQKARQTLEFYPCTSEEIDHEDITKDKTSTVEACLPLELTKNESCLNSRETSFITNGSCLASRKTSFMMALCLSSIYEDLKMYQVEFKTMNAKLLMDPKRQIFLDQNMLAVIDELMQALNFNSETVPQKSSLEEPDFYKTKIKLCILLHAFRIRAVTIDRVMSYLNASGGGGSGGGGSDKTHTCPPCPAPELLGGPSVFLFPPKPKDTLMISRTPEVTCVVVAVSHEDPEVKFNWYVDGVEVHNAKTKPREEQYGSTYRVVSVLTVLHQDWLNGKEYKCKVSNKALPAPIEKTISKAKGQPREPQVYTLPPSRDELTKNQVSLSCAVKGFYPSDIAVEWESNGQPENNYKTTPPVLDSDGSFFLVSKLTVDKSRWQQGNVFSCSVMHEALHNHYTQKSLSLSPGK
notes: DVD-Ig form of the anti-FAP arm, knob-in-hole with the IL-12 arm
B4: T1.05 (anti-hu FAP/hu IL-12 mut2, hu IgG1 DANG (2 + 1)) (bispecific antibody)
heavy: B3 heavy
light: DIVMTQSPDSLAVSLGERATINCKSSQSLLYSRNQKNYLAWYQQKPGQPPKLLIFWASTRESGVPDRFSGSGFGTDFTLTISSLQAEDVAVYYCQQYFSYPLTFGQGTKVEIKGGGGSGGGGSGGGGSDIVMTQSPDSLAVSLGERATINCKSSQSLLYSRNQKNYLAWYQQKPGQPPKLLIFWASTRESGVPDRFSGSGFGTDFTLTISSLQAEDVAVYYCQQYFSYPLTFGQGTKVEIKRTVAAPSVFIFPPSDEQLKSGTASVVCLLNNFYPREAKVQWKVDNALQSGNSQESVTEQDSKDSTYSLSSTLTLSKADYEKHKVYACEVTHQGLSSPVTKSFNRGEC
chain: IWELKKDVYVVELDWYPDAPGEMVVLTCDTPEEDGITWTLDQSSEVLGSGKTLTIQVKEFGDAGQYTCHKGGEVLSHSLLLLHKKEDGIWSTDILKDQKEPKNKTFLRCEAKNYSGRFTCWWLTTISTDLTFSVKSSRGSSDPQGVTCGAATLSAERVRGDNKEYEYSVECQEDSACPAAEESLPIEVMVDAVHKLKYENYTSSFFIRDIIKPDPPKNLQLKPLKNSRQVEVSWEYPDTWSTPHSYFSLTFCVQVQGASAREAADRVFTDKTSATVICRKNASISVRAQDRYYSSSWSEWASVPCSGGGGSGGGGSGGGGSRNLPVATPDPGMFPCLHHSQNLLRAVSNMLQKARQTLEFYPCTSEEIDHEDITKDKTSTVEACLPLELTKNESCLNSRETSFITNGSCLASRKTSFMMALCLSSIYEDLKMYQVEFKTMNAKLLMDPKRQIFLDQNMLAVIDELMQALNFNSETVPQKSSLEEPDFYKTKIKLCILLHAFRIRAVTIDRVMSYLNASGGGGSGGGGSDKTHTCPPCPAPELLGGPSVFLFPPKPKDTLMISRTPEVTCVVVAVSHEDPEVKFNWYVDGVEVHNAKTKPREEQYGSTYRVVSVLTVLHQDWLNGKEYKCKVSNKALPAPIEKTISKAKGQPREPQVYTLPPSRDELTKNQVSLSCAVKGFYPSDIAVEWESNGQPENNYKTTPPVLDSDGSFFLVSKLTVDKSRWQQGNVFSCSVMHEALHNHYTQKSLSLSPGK
notes: DVD-Ig form of the anti-FAP arm, knob-in-hole with the IL-12 mut2 arm
B5: T1.08 (anti-hu FAP/hu IL-12, hu IgG1 DANG (2 + 1, LC scFv)) (bispecific antibody)
heavy: QVQLVQSGAEVKKPGASVKVSCKTSRYTFTEYTIHWVRQAPGQRLEWIGGINPNNGIPNYNQKFKGRVTITVDTSASTAYMELSSLRSEDTAVYYCARRRIAYGYDEGHAMDYWGQGTLVTVSSASTKGPSVFPLAPSSKSTSGGTAALGCLVKDYFPEPVTVSWNSGALTSGVHTFPAVLQSSGLYSLSSVVTVPSSSLGTQTYICNVNHKPSNTKVDKKVEPKSCDKTHTCPPCPAPELLGGPSVFLFPPKPKDTLMISRTPEVTCVVVAVSHEDPEVKFNWYVDGVEVHNAKTKPREEQYGSTYRVVSVLTVLHQDWLNGKEYKCKVSNKALPAPIEKTISKAKGQPREPQVYTLPPSRDELTKNQVSLWCLVKGFYPSDIAVEWESNGQPENNYKTTPPVLDSDGSFFLYSKLTVDKSRWQQGNVFSCSVMHEALHNHYTQKSLSLSPGK
light: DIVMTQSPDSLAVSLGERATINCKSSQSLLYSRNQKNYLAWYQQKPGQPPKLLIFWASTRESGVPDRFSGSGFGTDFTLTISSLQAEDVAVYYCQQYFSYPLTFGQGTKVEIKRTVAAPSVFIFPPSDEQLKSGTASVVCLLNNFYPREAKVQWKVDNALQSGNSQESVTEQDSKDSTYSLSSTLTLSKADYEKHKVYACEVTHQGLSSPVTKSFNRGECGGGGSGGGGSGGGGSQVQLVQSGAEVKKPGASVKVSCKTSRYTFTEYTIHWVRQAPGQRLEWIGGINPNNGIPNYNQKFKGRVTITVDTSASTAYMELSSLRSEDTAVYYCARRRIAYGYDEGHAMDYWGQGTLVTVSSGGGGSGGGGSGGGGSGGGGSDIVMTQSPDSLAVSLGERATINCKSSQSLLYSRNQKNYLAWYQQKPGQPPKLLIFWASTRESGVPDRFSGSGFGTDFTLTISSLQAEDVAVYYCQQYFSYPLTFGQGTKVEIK
chain: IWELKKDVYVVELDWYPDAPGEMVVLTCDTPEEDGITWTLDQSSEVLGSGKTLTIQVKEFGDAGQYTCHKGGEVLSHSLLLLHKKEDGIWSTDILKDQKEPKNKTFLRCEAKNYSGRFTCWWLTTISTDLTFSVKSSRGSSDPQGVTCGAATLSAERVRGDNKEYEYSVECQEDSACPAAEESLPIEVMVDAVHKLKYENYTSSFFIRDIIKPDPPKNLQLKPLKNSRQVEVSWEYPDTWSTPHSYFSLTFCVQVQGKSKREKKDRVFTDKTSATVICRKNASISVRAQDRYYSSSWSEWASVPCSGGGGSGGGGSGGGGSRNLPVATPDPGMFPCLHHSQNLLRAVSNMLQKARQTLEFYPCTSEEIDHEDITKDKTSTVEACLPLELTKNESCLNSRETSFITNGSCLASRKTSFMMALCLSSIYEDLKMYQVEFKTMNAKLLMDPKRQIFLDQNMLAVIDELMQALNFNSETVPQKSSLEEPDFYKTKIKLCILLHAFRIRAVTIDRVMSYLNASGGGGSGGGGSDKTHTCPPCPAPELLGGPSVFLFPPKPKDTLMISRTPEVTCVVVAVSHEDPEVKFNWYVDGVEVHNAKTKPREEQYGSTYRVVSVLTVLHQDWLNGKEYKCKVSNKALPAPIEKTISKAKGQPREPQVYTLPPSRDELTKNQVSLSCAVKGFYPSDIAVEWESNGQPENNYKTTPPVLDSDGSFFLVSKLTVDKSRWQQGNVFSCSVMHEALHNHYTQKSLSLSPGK
notes: Anti-FAP scFv at the C-terminus of the light chain; knob-in-hole with the IL-12 arm
B6: T1.10 (anti-hu FAP/anti-hu FAP-hu IL-12, hu IgG1 DANG (2 + 1)) (antibody)
heavy 1: B5 heavy
heavy 2: QVQLVQSGAEVKKPGASVKVSCKTSRYTFTEYTIHWVRQAPGQRLEWIGGINPNNGIPNYNQKFKGRVTITVDTSASTAYMELSSLRSEDTAVYYCARRRIAYGYDEGHAMDYWGQGTLVTVSSASTKGPSVFPLAPSSKSTSGGTAALGCLVKDYFPEPVTVSWNSGALTSGVHTFPAVLQSSGLYSLSSVVTVPSSSLGTQTYICNVNHKPSNTKVDKKVEPKSCDKTHTCPPCPAPELLGGPSVFLFPPKPKDTLMISRTPEVTCVVVAVSHEDPEVKFNWYVDGVEVHNAKTKPREEQYGSTYRVVSVLTVLHQDWLNGKEYKCKVSNKALPAPIEKTISKAKGQPREPQVYTLPPSRDELTKNQVSLSCAVKGFYPSDIAVEWESNGQPENNYKTTPPVLDSDGSFFLVSKLTVDKSRWQQGNVFSCSVMHEALHNHYTQKSLSLSPGGGGGSGGGGSGGGGSIWELKKDVYVVELDWYPDAPGEMVVLTCDTPEEDGITWTLDQSSEVLGSGKTLTIQVKEFGDAGQYTCHKGGEVLSHSLLLLHKKEDGIWSTDILKDQKEPKNKTFLRCEAKNYSGRFTCWWLTTISTDLTFSVKSSRGSSDPQGVTCGAATLSAERVRGDNKEYEYSVECQEDSACPAAEESLPIEVMVDAVHKLKYENYTSSFFIRDIIKPDPPKNLQLKPLKNSRQVEVSWEYPDTWSTPHSYFSLTFCVQVQGKSKREKKDRVFTDKTSATVICRKNASISVRAQDRYYSSSWSEWASVPCSGGGGSGGGGSGGGGSRNLPVATPDPGMFPCLHHSQNLLRAVSNMLQKARQTLEFYPCTSEEIDHEDITKDKTSTVEACLPLELTKNESCLNSRETSFITNGSCLASRKTSFMMALCLSSIYEDLKMYQVEFKTMNAKLLMDPKRQIFLDQNMLAVIDELMQALNFNSETVPQKSSLEEPDFYKTKIKLCILLHAFRIRAVTIDRVMSYLNAS
light: not shown
notes: single-chain IL-12 at the C-terminus of the hole heavy chain
B7: T1.09 (anti-hu FAP/hu IL-12 mut2, hu IgG1 DANG (2 + 1, LC scFv)) (bispecific antibody)
heavy: B5 heavy
light: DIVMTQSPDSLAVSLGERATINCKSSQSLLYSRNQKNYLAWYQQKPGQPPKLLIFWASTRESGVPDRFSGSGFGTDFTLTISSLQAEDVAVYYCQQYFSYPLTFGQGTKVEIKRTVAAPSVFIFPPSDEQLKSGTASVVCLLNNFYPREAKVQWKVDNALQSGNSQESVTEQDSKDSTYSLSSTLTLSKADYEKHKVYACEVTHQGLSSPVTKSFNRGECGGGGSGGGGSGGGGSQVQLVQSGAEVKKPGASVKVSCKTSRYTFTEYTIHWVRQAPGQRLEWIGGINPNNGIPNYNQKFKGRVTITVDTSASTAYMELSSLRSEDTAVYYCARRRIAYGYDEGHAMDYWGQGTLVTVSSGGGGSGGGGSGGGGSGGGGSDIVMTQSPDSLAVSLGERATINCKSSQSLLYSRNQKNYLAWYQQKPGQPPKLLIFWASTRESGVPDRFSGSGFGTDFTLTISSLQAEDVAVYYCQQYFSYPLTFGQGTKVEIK
chain: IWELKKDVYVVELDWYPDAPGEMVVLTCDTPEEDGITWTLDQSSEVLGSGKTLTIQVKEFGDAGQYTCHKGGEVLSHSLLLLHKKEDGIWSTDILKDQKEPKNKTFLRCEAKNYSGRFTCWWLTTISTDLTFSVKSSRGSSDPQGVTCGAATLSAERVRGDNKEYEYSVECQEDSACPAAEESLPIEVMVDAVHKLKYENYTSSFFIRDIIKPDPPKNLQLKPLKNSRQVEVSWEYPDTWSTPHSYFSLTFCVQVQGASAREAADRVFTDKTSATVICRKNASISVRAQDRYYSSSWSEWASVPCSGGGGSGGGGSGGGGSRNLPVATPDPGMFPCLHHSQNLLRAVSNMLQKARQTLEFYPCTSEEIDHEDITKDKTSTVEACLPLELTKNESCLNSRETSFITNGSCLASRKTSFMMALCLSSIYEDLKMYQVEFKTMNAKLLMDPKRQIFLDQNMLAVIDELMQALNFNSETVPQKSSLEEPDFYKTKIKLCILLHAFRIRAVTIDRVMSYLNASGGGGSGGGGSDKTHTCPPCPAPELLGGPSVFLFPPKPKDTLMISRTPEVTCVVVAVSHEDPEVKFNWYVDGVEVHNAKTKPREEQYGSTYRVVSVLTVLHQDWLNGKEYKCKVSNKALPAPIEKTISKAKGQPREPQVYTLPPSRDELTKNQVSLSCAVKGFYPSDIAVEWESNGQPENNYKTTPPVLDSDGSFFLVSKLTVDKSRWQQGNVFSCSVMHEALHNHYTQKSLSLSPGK
notes: Anti-FAP scFv at the C-terminus of the light chain; knob-in-hole with the IL-12 mut2 arm
B8: T1.11 (anti-hu FAP/anti-hu FAP-hu IL-12 mut2, hu IgG1 DANG (2 + 1)) (antibody)
heavy 1: B5 heavy
heavy 2: B6 heavy 2 with K726A, K728A, K731A, K732A
light: not shown
notes: single-chain IL-12 mut2 at the C-terminus of the hole heavy chain

The binders below were run against T1, recombinant human FAP (assay: SPR, captured by anti-human IgG (Fc), human FAP analyte, 1:1 binding model).
Experimental: Bindings of T1.04, T1.05, T1.06, T1.07, T1.08, T1.09, T1.10 and T1.11 to recombinant human […] were identified by surface plasmon resonance (SPR). The surface of the CM5 chip was activated with a 1:1 mixture of […] (N-hydroxysuccinimide) and […] (1-Ethyl-3-(3-dimethylaminopropyl) carbodiimide), and 25 μg/ml of anti-human IgG (Fc) antibody was immobilized for 400 seconds at a rate of 10 μl/min. The remaining active ester groups were blocked with 1 M ethanolamine.
Specifically, human proteins T1.04, T1.05, T1.06, T1.07, T1.08, T1.09, T1.10 and T1.11 were diluted to 1 μg/ml, 1 μg/ml, 1 μg/ml, 1 μg/ml, 0.5 μg/ml, 0.5 μg/ml, 0.5 μg/ml, and 1 μg/ml, respectively, and reacted on a CM5 chip immobilized with an anti-human IgG (Fc) antibody. The recombinant human FAP was diluted to 25 nM or 50 nM in 1×HBS-EP+buffer solution and diluted by serial dilution. The diluted recombinant human FAP was reacted at a rate of 30 μl/min. The association and dissociation times were 180 seconds and 400 seconds, respectively. After the dissociation, stabilization was performed for 60 seconds, and then a regeneration was performed for 30 seconds with a 10 mM glycine pH 1.5 solution at a rate of 30 μl/min.

| Kd | koff | kon | Binder |
| --- | --- | --- | --- |
| 0.596 nM | 6.22e-05 s⁻¹ | 104000 M⁻¹ s⁻¹ | B1 |
| 0.128 nM | 7.64e-05 s⁻¹ | 597000 M⁻¹ s⁻¹ | B2 |
| 0.0257 nM | 1.5e-05 s⁻¹ | 583000 M⁻¹ s⁻¹ | B3 |
| 0.0932 nM | 5.83e-05 s⁻¹ | 625000 M⁻¹ s⁻¹ | B4 |
| 0.177 nM | 7.87e-05 s⁻¹ | 446000 M⁻¹ s⁻¹ | B5 |
| 0.479 nM | 7.48e-05 s⁻¹ | 156000 M⁻¹ s⁻¹ | B6 |
| 0.214 nM | 0.000111 s⁻¹ | 517000 M⁻¹ s⁻¹ | B7 |
| 0.267 nM | 3.19e-05 s⁻¹ | 120000 M⁻¹ s⁻¹ | B8 |
